Test results: patent publication US20240116985A1 (published 2024)
Starred links: 1 amine or outer side, 2 acyl side, 3 side chain; linkers in the order of their positions; H or OH if unused. Positions of bridges follow the written chain, without caps; N, C: chain ends. Non-standard residues stand in square brackets, D forms with d. Primed or numbered codes have the meaning given here. PyrS2(3) = (S)-3-amino-1-((pent-4-en-1-yloxy)carbonyl)pyrrolidine-3-carboxylic acid, stapling residue, C=CCCCOC(=O)N1CC[C@@](N[*:1])(C(=O)[*:2])C1; PyrS2″ = (S)-3-amino-1-((pent-4-en-1-yloxy)carbonyl)pyrrolidine-3-carboxylic acid (stapling residue), C=CCCCOC(=O)N1CC[C@@](N[*:1])(C(=O)[*:2])C1; B5(24) = 2-amino-2-(pent-4-en-1-yl)hept-6-enoic acid, 2,2-bis(4-pentenyl)glycine (stitching residue), C=CCCCC(CCCC=C)(N[*:1])C(=O)[*:2]; B5(4) = 2,2-bis(4-pentenyl)glycine = 2-amino-2-(pent-4-en-1-yl)hept-6-enoic acid (stitching residue), C=CCCCC(CCCC=C)(N[*:1])C(=O)[*:2]; B5(20) = 2-amino-2-(pent-4-en-1-yl)hept-6-enoic acid = bis(4-pentenyl)glycine, stitching residue, C=CCCCC(CCCC=C)(N[*:1])C(=O)[*:2]; TfeGA = (S)-2-amino-3-((carboxymethyl)(2,2,2-trifluoroethyl)amino)propanoic acid, O=C([C@H](CN(CC(=O)[*:3])CC(F)(F)F)N[*:1])[*:2]; PyrS2 = (S)-3-amino-1-((pent-4-en-1-yloxy)carbonyl)pyrrolidine-3-carboxylic acid, C=CCCCOC(=O)N1CC[C@@](N[*:1])(C(=O)[*:2])C1; MePpzAsn = (S)-2-amino-4-(4-methylpiperazin-1-yl)-4-oxobutanoic acid, CN1CCN(C(=O)C[C@H](N[*:1])C(=O)[*:2])CC1; F2PipNva = (S)-2-amino-5-(4,4-difluoropiperidin-1-yl)pentanoic acid, O=C([C@H](CCCN1CCC(F)(F)CC1)N[*:1])[*:2]; MorphAsn = (S)-2-amino-4-morpholino-4-oxobutanoic acid, O=C(C[C@H](N[*:1])C(=O)[*:2])N1CCOCC1; B5(3) = 2,2-bis(4-pentenyl)glycine (stitching residue), C=CCCCC(CCCC=C)(N[*:1])C(=O)[*:2]; B5″ = 2,2-bis(4-pentenyl)glycine, stitching residue, C=CCCCC(CCCC=C)(N[*:1])C(=O)[*:2]; Phe(F5) = N[C@@H](Cc1c(F)c(F)c(F)c(F)c1F)C(=O)O; Nva(5-morpholino) = N[C@@H](CCCN1CCOCC1)C(=O)O; Phe(3-COOH) = N[C@@H](Cc1cccc(C(=O)O)c1)C(=O)O; 2F3MeF = Cc1cccc(C[C@H](N[*:1])C(=O)[*:2])c1F; Phe(2-CONH2) = NC(=O)c1ccccc1C[C@H](N)C(=O)O; Phe(2-Cl) = N[C@@H](Cc1ccccc1Cl)C(=O)O; Bta = N[C@@H](Cc1csc2ccccc12)C(=O)O; Lys(iPr) = CC(C)NCCCC[C@H](N)C(=O)O; αAllylPro = C=CC[C@@]1(C(=O)O)CCCN1; tBuAla = CC(C)(C)C[C@H](N)C(=O)O; Cha = N[C@@H](CC1CCCCC1)C(=O)O; S8 = C=CCCCCCC[C@](C)(N)C(=O)O; hSer = N[C@@H](CCO)C(=O)O

B1: I-507 (peptide)
peptide: XDAXDEAAFQXFXT
modifications: not fully specified; Ac-PL3-Asp-Ala-B5-Asp-Glu-Ala-Ala-Phe-Gln-S8-Phe-BztA-Thr-NH2; stapled by olefin metathesis (PL3-B5 and B5-S8)
B2: I-528 (peptide)
peptide: XDIXDEAAFQXFXQ
modifications: not fully specified; Ac-PL3-Asp-Ile-B5-Asp-Glu-Ala-Ala-Phe-Gln-S8-2OMeF-BztA-Gln-NH2; stapled by olefin metathesis (PL3-B5 and B5-S8)
B3: I-527 (peptide)
peptide: XDIXDEAAFQXFXQ
modifications: not fully specified; Ac-PL3-Asp-Ile-B5-Asp-Glu-Ala-Ala-Phe-Gln-S8-2OMeF-BztA-Gln-NH2; stapled by olefin metathesis (PL3-B5 and B5-S8)

Target: T1, B-cat-Halo (beta-catenin HaloTag construct expressed in HEK293 cells) (UniProt P35222 1-781)
T1 sequence (looked up): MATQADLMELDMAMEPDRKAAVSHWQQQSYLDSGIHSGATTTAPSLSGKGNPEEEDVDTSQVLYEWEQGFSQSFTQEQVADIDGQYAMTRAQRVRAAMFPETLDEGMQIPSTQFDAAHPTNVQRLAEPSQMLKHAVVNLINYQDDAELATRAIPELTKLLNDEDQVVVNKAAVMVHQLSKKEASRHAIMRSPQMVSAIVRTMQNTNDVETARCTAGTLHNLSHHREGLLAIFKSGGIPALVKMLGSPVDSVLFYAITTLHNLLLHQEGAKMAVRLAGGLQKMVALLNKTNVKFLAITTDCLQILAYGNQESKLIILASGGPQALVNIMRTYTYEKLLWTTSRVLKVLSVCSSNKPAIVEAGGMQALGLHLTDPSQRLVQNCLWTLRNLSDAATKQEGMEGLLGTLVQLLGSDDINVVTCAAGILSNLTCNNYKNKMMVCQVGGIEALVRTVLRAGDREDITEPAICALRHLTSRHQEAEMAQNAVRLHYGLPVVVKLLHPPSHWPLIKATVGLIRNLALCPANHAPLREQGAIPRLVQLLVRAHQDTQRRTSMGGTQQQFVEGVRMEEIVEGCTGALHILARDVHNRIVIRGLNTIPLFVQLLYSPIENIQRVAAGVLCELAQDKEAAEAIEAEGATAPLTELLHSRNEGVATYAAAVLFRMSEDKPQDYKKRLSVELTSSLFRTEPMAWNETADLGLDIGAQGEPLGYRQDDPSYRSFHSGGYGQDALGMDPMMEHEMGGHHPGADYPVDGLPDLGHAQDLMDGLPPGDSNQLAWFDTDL
Test: cell-based or functional assay

With Ac-[αAllylPro]D[tBuAla][B5″]DDAAFN[PyrS2(3)][Phe(F5)][Bta]Q-NH2 (staple 1-4, 4-11) [I-1186] the “NanoBRET Abs IC50” value was 23.6 µM.

Target: T2, B-cat-Halo (UniProt P35222 1-781)
T2 sequence (looked up): T1 sequence (looked up)
Test: cell-based or functional assay

Point of comparison: Ac-[αAllylPro]D[tBuAla][B5(3)]D[Phe(3-COOH)]AAFL[PyrS2][2F3MeF][Bta][Nva(5-morpholino)]-NH2 (staple 1-4, 4-11) [I-1610], “NanoBRET Abs IC50” value 4.1 µM. Against it:
- Ac-[αAllylPro]D[tBuAla][B5(4)]D[TfeGA]AAFT[PyrS2][Phe(2-Cl)][Bta][F2PipNva]-NH2 (staple 1-4, 4-11) [I-1607] — 2.9-fold higher, 11.9 µM
- Ac-[αAllylPro]D[tBuAla][B5(3)]D[TfeGA]AAFT[PyrS2″][Phe(2-Cl)][Bta][MePpzAsn]-NH2 (staple 1-4, 4-11) [I-1611] — 2.4-fold higher, 9.8 µM
- Ac-[αAllylPro]D[tBuAla][B5(4)]D[Phe(3-COOH)]AAFL[PyrS2][2F3MeF][Bta][F2PipNva]-NH2 (staple 1-4, 4-11) [I-1608] — 3.7-fold higher, 15.1 µM
- Ac-[αAllylPro]D[tBuAla][B5(3)]D[TfeGA]AAFT[PyrS2″][Phe(2-Cl)][Bta][MorphAsn]-NH2 (staple 1-4, 4-11) [I-1613] — within 1.5-fold, 5.2 µM
- Ac-[αAllylPro]N[tBuAla][B5(4)]DT[Lys(iPr)]AFN[PyrS2]F[Bta]Q-NH2 (staple 1-4, 4-11) [I-1602] — higher, > 20 µM
- Ac-[αAllylPro]D[tBuAla][B5(3)]D[Phe(3-COOH)]AAFL[PyrS2″][2F3MeF][Bta][MorphAsn]-NH2 (staple 1-4, 4-11) [I-1614] — 1.6-fold higher, 6.4 µM
- Ac-[αAllylPro]D[tBuAla][B5(3)]D[TfeGA]AAFT[PyrS2][Phe(2-Cl)][Bta][Nva(5-morpholino)]-NH2 (staple 1-4, 4-11) [I-1609] — 1.6-fold higher, 6.7 µM

Target: T3, B-cat-Halo (UniProt P35222 1-781)
T3 sequence (looked up): T1 sequence (looked up)
Test: cell-based or functional assay

Point of comparison: Ac-[αAllylPro]D[Cha][B5(24)]DDAAFL[PyrS2″][Phe(2-Cl)][Bta]T-NH2 (staple 1-4, 4-11) [I-1139], “NanoBRET Abs IC50” value 18 µM. Against it:
- Ac-[αAllylPro]D[Cha][B5(24)]DDAAFS[PyrS2″][Phe(2-Cl)][Bta]L-NH2 (staple 1-4, 4-11) [I-1138] — within 1.5-fold, 19.8 µM
- Ac-[αAllylPro]D[Cha][B5(24)]DDAAFS[PyrS2″][Phe(2-Cl)][Bta][dT]-NH2 (staple 1-4, 4-11) [I-1136] — within 1.5-fold, 14.9 µM
- Ac-[αAllylPro]D[Cha][B5(24)]DDAAFS[PyrS2″][Phe(2-Cl)][Bta][hSer]-NH2 (staple 1-4, 4-11) [I-1137] — 1.5-fold lower, 12 µM
- Ac-[αAllylPro]D[tBuAla][B5(24)]DDA[Lys(iPr)]FN[PyrS2″][Phe(2-Cl)][Bta]Q-NH2 (staple 1-4, 4-11) [I-1132] — higher, > 20 µM

Target: T4, full-length beta-Catenin (Uniprot ID P35222) (Homo sapiens (Human), UniProt P35222 1-781)
T4 construct: also called bCat; B-Catenin
T4 sequence: T1 sequence (looked up)
Test: FP competition: full-length beta-catenin 10 nM + 5FAM-TCF4(10-53) 10 nM
Experimental: The plate was incubated protected from light for 60 minutes at 20° C. prior to read. Reads were performed on a CLARIOstar plate reader (BMG Labtech) in duplicate, and data were fitted to a 1:1 binding model with hill slope using an in-house script. All provided concentrations are final concentrations.

Point of comparison: B2, IC50 0.063 µM. Against it:
- Ac-[αAllylPro]DA[B5(20)]DEAAFN[S8][Phe(2-CONH2)][Bta]H-NH2 (staple 1-4, 4-11, Stapled peptide composition) [I-513] — 2.3-fold higher, 0.143 µM
- B1 — 3-fold higher, 0.192 µM
- Ac-[αAllylPro]DA[B5(20)]DEAAFQ[S8]F[Bta]T-NH2 (staple 1-4, 4-11; also: later-eluting HPLC peak of staple isomers) [I-508] — within 1.5-fold, 0.073 µM
- B3 — 1.6-fold higher, 0.098 µM
